Data: patent US20100104555A1

Key:
Assay in all cases: cell-based or functional assay
[1] = target: E1E2 Env of HCV isolate UKN4.21.16 (genotype 4) on HCVpp (hepatitis C virus genotype 4, isolate UKN4.21.16)
[2] = target: E1E2 Env of HCV isolate UKN2B1.1 (genotype 2b) on HCVpp (hepatitis C virus genotype 2b, isolate UKN2B1.1)
[3] = target: E1E2 Env of HCV isolate J6 (genotype 2a) on HCVpp (hepatitis C virus genotype 2a, isolate J6) (UniProt P26660)
[4] = target: E1E2 Env of HCV isolate UKN5.15.7 (genotype 5) on HCVpp (hepatitis C virus genotype 5, isolate UKN5.15.7)
[5] = target: E1E2 Env of HCV isolate H (genotype 1a) on HCVpp (hepatitis C virus genotype 1a, isolate H)
[6] = target: VSV (control pseudotype virus)
[7] = target: E1E2 Env of HCV isolate UKN1B12.16 (genotype 1b) on HCVpp (hepatitis C virus genotype 1b, isolate UKN1B12.16)
[8] = target: E1E2 Env of HCV isolate OH8 (genotype 1b) on HCVpp (hepatitis C virus genotype 1b, isolate OH8)
[9] = target: E1E2 Env of HCV isolate UKN2A1.2 (genotype 2a) on HCVpp (hepatitis C virus genotype 2a, isolate UKN2A1.2)

MAb AR1B (antibody), sequence (VH): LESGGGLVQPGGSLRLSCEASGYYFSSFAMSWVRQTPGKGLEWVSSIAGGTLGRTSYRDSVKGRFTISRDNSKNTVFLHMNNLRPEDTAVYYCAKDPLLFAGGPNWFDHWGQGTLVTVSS
MAb AR1B (antibody), sequence (VL): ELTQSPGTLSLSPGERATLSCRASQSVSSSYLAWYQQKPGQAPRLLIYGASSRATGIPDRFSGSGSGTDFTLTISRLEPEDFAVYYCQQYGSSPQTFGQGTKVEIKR
E1E2 Env of HCV isolate J6 (genotype 2a) on HCVpp (hepatitis C virus genotype 2a, isolate J6), sequence (P26660 192-750 limits assumed): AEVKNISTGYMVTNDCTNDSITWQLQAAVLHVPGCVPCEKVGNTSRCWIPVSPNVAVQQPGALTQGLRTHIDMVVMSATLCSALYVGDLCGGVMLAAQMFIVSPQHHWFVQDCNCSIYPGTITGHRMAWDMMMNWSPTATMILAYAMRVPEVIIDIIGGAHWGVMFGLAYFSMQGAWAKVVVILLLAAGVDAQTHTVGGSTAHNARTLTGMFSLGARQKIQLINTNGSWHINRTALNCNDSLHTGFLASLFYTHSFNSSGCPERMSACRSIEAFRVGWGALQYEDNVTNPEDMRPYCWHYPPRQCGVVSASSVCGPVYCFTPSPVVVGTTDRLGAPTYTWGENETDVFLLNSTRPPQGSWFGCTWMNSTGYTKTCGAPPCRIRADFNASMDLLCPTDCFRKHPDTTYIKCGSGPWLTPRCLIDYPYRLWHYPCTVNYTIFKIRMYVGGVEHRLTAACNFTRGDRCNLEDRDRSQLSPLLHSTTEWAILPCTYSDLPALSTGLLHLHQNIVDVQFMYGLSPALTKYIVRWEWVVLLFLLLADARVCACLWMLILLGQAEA
MAb AR2A (antibody), sequence (VH): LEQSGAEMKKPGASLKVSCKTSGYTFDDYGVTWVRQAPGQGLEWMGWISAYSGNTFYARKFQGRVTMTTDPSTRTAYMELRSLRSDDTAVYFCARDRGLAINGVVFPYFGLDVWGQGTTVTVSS
MAb AR2A (antibody), sequence (VL): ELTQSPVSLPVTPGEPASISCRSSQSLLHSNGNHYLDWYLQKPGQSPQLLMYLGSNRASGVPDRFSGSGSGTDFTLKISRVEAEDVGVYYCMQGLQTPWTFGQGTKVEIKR
MAb AR3B (antibody), sequence (VH): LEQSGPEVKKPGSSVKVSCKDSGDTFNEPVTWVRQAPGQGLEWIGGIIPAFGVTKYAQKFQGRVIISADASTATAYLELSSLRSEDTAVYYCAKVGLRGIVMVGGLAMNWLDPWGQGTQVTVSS
MAb AR3B (antibody), sequence (VL): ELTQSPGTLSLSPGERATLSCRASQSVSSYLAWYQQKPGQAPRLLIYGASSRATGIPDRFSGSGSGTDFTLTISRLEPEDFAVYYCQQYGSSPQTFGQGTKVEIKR
MAb AR3C (antibody), sequence (VH): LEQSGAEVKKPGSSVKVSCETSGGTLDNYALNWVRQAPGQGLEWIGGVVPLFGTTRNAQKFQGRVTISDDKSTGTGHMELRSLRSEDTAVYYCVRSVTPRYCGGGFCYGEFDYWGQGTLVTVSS
MAb AR3C (antibody), sequence (VL): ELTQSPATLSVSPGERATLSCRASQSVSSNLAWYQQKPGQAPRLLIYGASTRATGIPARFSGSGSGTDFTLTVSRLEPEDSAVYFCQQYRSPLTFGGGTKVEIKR

Substance: MAb AR2A (antibody)
- Neutralizing activity (IC50), HCVpp [1]: 1 µg/mL
- Neutralizing activity (IC50), HCVpp [2]: 10 µg/mL
- Neutralizing activity (IC50), HCVpp [3]: > 50 µg/mL
- Neutralizing activity (IC50), HCVpp [4]: 10 µg/mL
- Neutralizing activity (IC50), HCVpp [5]: 5 µg/mL
- Neutralizing activity (IC50), control pseudotype [6]: > 50 µg/mL
- Neutralizing activity (IC50), HCVpp [7]: > 50 µg/mL
- Neutralizing activity (IC50), HCVpp [8]: > 50 µg/mL
- Neutralizing activity (IC50), HCVpp [9]: 5 µg/mL

Substance: MAb AR3C (antibody)
- Neutralizing activity (IC50), HCVpp [1]: 1 µg/mL
- Neutralizing activity (IC50), HCVpp [2]: 10 µg/mL
- Neutralizing activity (IC50), HCVpp [3]: 10 µg/mL
- Neutralizing activity (IC50), HCVpp [4]: 1 µg/mL
- Neutralizing activity (IC50), HCVpp [5]: 1 µg/mL
- Neutralizing activity (IC50), control pseudotype [6]: > 50 µg/mL
- Neutralizing activity (IC50), HCVpp [7]: 1 µg/mL
- Neutralizing activity (IC50), HCVpp [8]: 5 µg/mL
- Neutralizing activity (IC50), HCVpp [9]: 10 µg/mL

Substance: MAb AR1B (antibody)
- Neutralizing activity (IC50), HCVpp [1]: > 50 µg/mL
- Neutralizing activity (IC50), HCVpp [2]: > 50 µg/mL
- Neutralizing activity (IC50), HCVpp [3]: > 50 µg/mL
- Neutralizing activity (IC50), HCVpp [4]: > 50 µg/mL
- Neutralizing activity (IC50), control pseudotype [6]: > 50 µg/mL
- Neutralizing activity (IC50), HCVpp [7]: > 50 µg/mL
- Neutralizing activity (IC50), HCVpp [8]: > 50 µg/mL
- Neutralizing activity (IC50), HCVpp [9]: > 50 µg/mL

Substance: MAb AR3D (antibody)
- Neutralizing activity (IC50), HCVpp [1]: 1 µg/mL
- Neutralizing activity (IC50), HCVpp [2]: 25 µg/mL
- Neutralizing activity (IC50), HCVpp [3]: 50 µg/mL
- Neutralizing activity (IC50), HCVpp [4]: 10 µg/mL
- Neutralizing activity (IC50), HCVpp [5]: 1 µg/mL
- Neutralizing activity (IC50), control pseudotype [6]: > 50 µg/mL
- Neutralizing activity (IC50), HCVpp [7]: 1 µg/mL
- Neutralizing activity (IC50), HCVpp [8]: 5 µg/mL
- Neutralizing activity (IC50), HCVpp [9]: 25 µg/mL

Substance: MAb AR1A (antibody)
- Neutralizing activity (IC50), HCVpp [1]: > 50 µg/mL
- Neutralizing activity (IC50), HCVpp [2]: > 50 µg/mL
- Neutralizing activity (IC50), HCVpp [3]: > 50 µg/mL
- Neutralizing activity (IC50), HCVpp [4]: > 50 µg/mL
- Neutralizing activity (IC50), control pseudotype [6]: > 50 µg/mL
- Neutralizing activity (IC50), HCVpp [7]: > 50 µg/mL
- Neutralizing activity (IC50), HCVpp [8]: > 50 µg/mL
- Neutralizing activity (IC50), HCVpp [9]: > 50 µg/mL

Substance: MAb AR3B (antibody)
- Neutralizing activity (IC50), HCVpp [1]: 1 µg/mL
- Neutralizing activity (IC50), HCVpp [2]: 10 µg/mL
- Neutralizing activity (IC50), HCVpp [3]: 10 µg/mL
- Neutralizing activity (IC50), HCVpp [4]: 1 µg/mL
- Neutralizing activity (IC50), HCVpp [5]: 1 µg/mL
- Neutralizing activity (IC50), control pseudotype [6]: > 50 µg/mL
- Neutralizing activity (IC50), HCVpp [7]: 1 µg/mL
- Neutralizing activity (IC50), HCVpp [8]: 5 µg/mL
- Neutralizing activity (IC50), HCVpp [9]: 5 µg/mL
